Experimental data as given in patent US12428627B2, “Mutant p-hydroxyphenylpyruvate dioxygenase, and coding nucleic acid and use thereof” (Qingdao Kingagroot Chemical Compound Co., Ltd., priority 2018, dated 2025).
Changes are numbered by the printed parent chain. Names and notes keep the numbering of the source.

B1: G342D: single-site mutant rice HPPD (protein, listed as Oryza sativa)
chain: MPPTPTPTATTGAVSAAAAAGENAGFRLVGHRRFVRANPRSDRFQALAFHHVELWCADAASAAGRFAFALGAPLAARSDLSTGNSAHASLLLRSASVAFLFTAPYGGDHGVGADAATTASIPSFSPGAARRFAADHGLAVHAVALRVADAADAFRASVAAGARPAFQPADLGGGFGLAEVELYGDVVLRFVSHPDGADAPFLPGFEGVSNPGAVDYGLRRFDHVVGNVPELAPVAAYISGFTGFHEFAEFTAEDVGTAESGLNSVVLANNAETVLLPLNEPVHGTKRRSQIQTYLDHHGGPGVQHIALASDDVLGTLREMRARSAMGGFEFLAPPPPNYYDDVRRRAGDVLSEEQINECQELGVLVDRDDQGVLLQIFTKPVGDRPTFFLEMIQRIGCMEKDESGQEYQKGGCGGFGKGNFSELFKSIEEYEKSLEAKQAPTVQGS
modifications: The amino acid sequence of Wild-Type rice HPPD protein (OsHPPD _WT)
B2: N338D/G342D/R346C: mutant rice HPPD (protein, listed as Oryza sativa)
chain: B1 chain with N338D, R346C
modifications: The amino acid sequence of Wild-Type rice HPPD protein (OsHPPD _WT)
B3: N338S/G342D/R346C (protein)
chain: B1 chain with N338S, R346C
B4: H141R/N338D/G342D: mutant rice HPPD (protein)
chain: B1 chain with H141R, N338D
B5: H141R/N338D/G342D/P386T: mutant rice HPPD (protein)
chain: B1 chain with H141R, N338D, P386T
B6: 103: single-site mutant rice HPPD, A103S (protein)
chain: B1 chain with A57S, A103S, D342G
modifications: The amino acid sequence of rice HPPD mutant (OsHPPD_A103S)
notes: single-site mutant rice HPPD, A103S
B7: H141R/G342D/G419F: mutant rice HPPD (protein)
chain: B1 chain with H141R, G419F
B8: H141R/G342D/K418P: mutant rice HPPD (protein)
chain: B1 chain with H141R, K418P
B9: H141R/N338D/G342D/R346C: mutant rice HPPD (protein)
chain: B1 chain with H141R, N338D, R346C
B10: H141R/N338D/G342D/R346H: mutant rice HPPD (protein)
chain: B1 chain with H141R, N338D, R346H
B11: H141R/N338D/G342D/K418P/G419F/N420S: mutant rice HPPD (protein)
chain: B1 chain with H141R, N338D, K418P, G419F, N420S
B12: N338D/G342D: mutant rice HPPD (protein)
chain: B1 chain with N338D
B13: G342D/R346C: mutant rice HPPD (protein, listed as Oryza sativa)
chain: B1 chain with R346C
modifications: The amino acid sequence of Wild-Type rice HPPD protein (OsHPPD _WT)
B14: H141R/N338D/N420S: mutant rice HPPD (protein)
chain: B1 chain with H141R, N338D, D342G, N420S

Key:
[1] = system: rice HPPD (OsHPPD); experiment: Color reaction of recombinant E. coli expressing wild-type or mutant rice HPPD, cultured in 96-well plate in medium containing an HPPD-inhibiting herbicide and tyrosine; type: cell-based, Oryza sativa; design: key to relative resistance to Tembotrione / relative resistance to Benzuofucaotong metabolic product / relative resistance to Huanbifucaotong / relative resistance to Topramezone / relative resistance to Mesotrione / resistance to Tembotrione / resistance to Benzucfucaotong metabolic product / resistance to Huanbifucaotong / resistance to Topramezone / resistance to Mesotrione: The more the plus sign “+”, the deeper the color and the higher the resistance/tolerance as compared to the wild type; conditions: for resistance ranking in color reaction: compound 101
Excerpt: The rice full-length OsHPPD enzyme has 446 amino acids and its amino acid sequence is set forth in SEQ ID NO: 2, wherein the amino acids 1-50 are considered to constitute a signal peptide which is responsible for directing into chloroplast (Siehl et al. Plant Physiol. 2014 November; 166(3): 1162-1176). Therefore, from the amino acid at the 51-position to the amino acid at the […], a saturated random mutation was made for each amino acid. This was achieved by performing a bridge PCR by using a primer containing a coding sequence of an amino acid to be mutated into NNK and another suitable conventional primer. In NNK, N represented A/T/G/C and K represented G/T, and the NNK codon could encode any one of 20 amino acids or terminators. Accordingly, this was a saturated mutation. Please see: Kille S. Acevedo-Rocha C G, Parra L P, Zhang Z G, Opperman D J, Reetz M T, Acevedo J P (2013) Reducing codon redundancy and screening effort of combinatorial protein libraries created by saturation mutagenesis. ACS Synth Biol 2(2):83-92; Directed Evolution Library Creation: methods and protocols 2nd ed. Edited by Elizabeth M. J. Gillam, Janine N. Copp and David F. Ackerley New York, NY United States: Springer, 2014. doi:10.1007/978-1-4939-1053-3. A large number of mutants would be produced. The mutant was cloned into a linearized pET-44a vector and transformed into E. co/i, which was cultivated by using a 96-well plate in a 2×YT culture solution containing an HPPD-inhibiting herbicide (such as 1-2 μM tembotrione) and a substrate tyrosine (1 g/L) in a shaker at 28° C. and 150 rpm for 24 hours for expression, and then the mutants were rapidly screened out according to their color browning. By using the method, 10 single amino acid mutants, A103S, H141R, H141 K, H141T, A165V, V191I, R220K, G342D, D370N and K410I, were screened out. The color reaction of these resistant mutants in the presence of tembotrione and the metabolic product of benzuofucaotong relative to that of the wild type was as shown in FIG. 1.
Similarly, the color reaction of these mutants in the presence of the other three HPPD-inhibiting herbicides huanbifucaotong, topramezone and mesotrione were determined, see FIGS. 2 and 3. The resistance/tolerance of each of the mutants to the five herbicides was roughly estimated on the basis of color changes thereof and the results were shown in Table 1. The more the plus sign “+”, the deeper the color and the higher the resistance/tolerance as compared to the wild type.
HPPD-inhibiting herbicides inhibited HPPD enzymatic activity. When tyrosine was converted to 4-hydroxyphenylpyruvate (HPP) under the action of tyrosine transaminase, the inactivated HPPD was unable to oxidize 4-hydroxyphenylpyruvate into homogentisic acid (HGA). HGA was dark brown. Therefore, if an HPPD mutant was resistant to or tolerant to an herbicide, after expressed in E. coli, the mutant could also oxidize 4-hydroxyphenylpyruvate into homogentisic acid, whereby dark brown appeared. Therefore, E. coli was cultured in a 2×YT culture medium containing a HPPD-inhibiting herbicide and a substrate tyrosine using a 96-well plate to express HPPD, and these mutants were rapidly screened according to their color changes. • (1) Preparation of 2×YT culture medium (1 g/L L-Tyr, 0.1 mM IPTG, 0.01 mM MnCl2 and 100 mg/L ampicillin were added). • (2) 0.1 mL of the above medium was added to each well of a 96-well plate, and the expression clones of OsHPPD wild type or mutant (OsHPPD Mut) from the E. coli plate obtained by the above transformation were subjected to liquid culture in the 96-well plate. HPPD inhibitors having a final concentration of 1 μM-20 μM were added according to different selected agents, for example, the final concentration of tembotrione was 1.7 μM while mesotrione was 10 μM. […]

[2] = system: OsHPPD; experiment: HPPD enzyme activity assay: Km, Kcat and Kcat/Km of OsHPPDs; type: biochemical, Oryza sativa; conditions: for Km: substrate 4-HPP
Description: The rice OsHPPD protein and homogentisate 1,2-dioxygenase (HGD) were obtained by heterologously expressed in E. coli wherein the gene was inserted into the pET 15b expression vector and expressed in the BL21 (DE3) expression strain, and purified by the Ni-NTA resin. • (1) The HPPD open reading frame (ORF) of the positive clone was cloned into the pET-15b vector to form a 6His-HPPD expression vector, and transformed into the BL21 (DE3) cell. The expression strain was inoculated in 10 mL of 2×YT culture medium, and cultivated overnight on a shaker at 37° C. and 200 rpm. The 10 mL of the culture was inoculated in 1 L of 2×YT culture medium and cultivated until the OD600 reached 0.6-0.8, cooled to a temperature of 16° C., and subjected to induced-expression with 0.2 mM IPTG (isopropyl thiogalactoside) overnight. The strains were collected by centrifugation at 2800×g. • (2) The collected strains were re-suspended with the buffer A (50 mM Tris pH 8.0, 500 mM NaCl, 20 mM imidazole), to which PMSF (phenylmethanesulfonyl fluoride) at the final concentration of 1 mM and 250 μL of a protease inhibitor cocktail (i.e., a mixture of multiple protease inhibitors), and mixed. The cells were broken by ultrasound in ice-bath (40% total power, work for 3 seconds/6 seconds interval, 2×30 minutes (Ningbo Scientz Biotechnology Co., Ltd., Ningbo, China)), and centrifuged at 12000 rpm at 4° C. for 30 minutes; and the supernatant was filtered with a 0.22 μm filter membrane. • (3) Purification with the Ni-NTA column: the supernatant was in contact with the Ni-NTA resin, then rinsed with a buffer A containing 50 mM imidazole to remove the impurities, and finally, eluted with an elution buffer containing 400 mM imidazole. • (4) The approximate purity of the protein of interest was analyzed by SDS-PAGE. The eluates containing of the protein of interest were combined and concentrated by an ultrafiltration device (10 kDa molecular weight cut-off, Amicon Ultra). The solution was replaced with a solution containing 20 mM Tris-HCl and having a pH of 7.5 for at least 3 times to desalt. The total protein concentration was determined by the BCA method.
(§1) • 1. The activity of a HPPD enzyme was determined by detecting the conversion of 4-hydroxyphenylpyruvate (4-HPP) to homogentisic acid (HGA) catalyzed by the HPPD enzyme and the conversion of HGA to maleylacetoacetate (MAA) catalyzed by homogentisate dioxygenase. […] 6 μl of 4-hydroxyphenylpyruvate (4-HPP) having a concentration that was as 50 times as the final concentration of the substrate were added to an ELSA plate, and then 294 μL of hydroxyethylpiperazine ethanesulfonic acid (HEPES) with a final concentration of 25 mM and pH of 7, 2 mM of Vitamin C, 10 mM FeSO4, 50 nM homogentisate dioxygenase and 5 to 240 nM HPPD enzyme were added thereto at one time. The final concentration of reaction substrate 4-HPP usually ranged from 1 to 100 μM. • 3. The absorbance changes of the reaction wells at 318 nm were continuously monitored by a UV ELISA detector (ReadMax 1900 photoabsorption type full-wavelength microplate reader) (Shanghai). • 4. Determination of Km, Kcat and Kcat/Km of OsHPPDs
Vmax is the maximum catalytic reaction rate achievable by enzymatic catalysis. The Michaelis constant Km is the concentration of a substrate required when the enzyme catalyzed the reaction to achieve half of the maximum rate (Vmax). The Km value is a constant and independent of the enzyme concentration, and altered as substrate type, reaction temperature, pH, and ionic strength changed. […] is a catalytic constant of an enzyme and referred to the number of substrate molecules that could be catalyzed by an enzyme molecule or enzyme active center per second. KCat/Km represents the catalytic efficiency of enzyme. It could be seen from the data in the table that the catalytic efficiency of most HPPD mutants was enhanced.

[3] = system: OsHPPD proteins; experiment: Inhibitory activity (IC50) of the herbicide 101 and huanbifucaotong against OsHPPD proteins; type: biochemical, Oryza sativa; conditions: herbicides 101 and huanbifucaotong
Description: as §1
• 5. Determination of inhibitory activity (IC50) of the herbicide 101 and huanbifucaotong against OsHPPD proteins
Due to the unique properties of each of 101 and huangbifucaotong, the degree of the increased IC50 value is not completely consistent for the two HPPD herbicides.

Molecule	Km [2]	other results
B1		color change compared with wild type ([1]; tembotrione and metabolic product of benzuofucaotong, FIG. 1): obviously deeper than that of the wild type
B2	9.5 µM	resistance ranking in color reaction [1]: highest resistance
B3		resistance ranking in color reaction [1]: highest resistance
B4	6.3 µM	resistance in in vitro enzyme activity experiments [3]: relatively high resistance; affinity to substrate (Km) [2]: not reduced
B5	9.7 µM	resistance in in vitro enzyme activity experiments [3]: relatively high resistance; affinity to substrate (Km) [2]: not reduced
B6		relative resistance to Huanbifucaotong ([1]; Table 1, single-site mutants, estimated from color change, wild type = +): +
B7	7.9 µM	
B8	30.6 µM	
B9	7.4 µM	
B10	7.6 µM	
B11	23 µM	
B12	2.1 µM	
B13	5.9 µM	
B14	5.1 µM	
